Read-outs that look alike come from different tables or passages of the source.
T1: recombinant monkey TfR (extracellular region of cynomolgus monkey transferrin receptor, N-terminal histidine … (cynomolgus monkey (Macaca fascicularis), UniProt Q5RDH6 89-760 (Pongo abelii entry)))
T1 construct: also called r monkey TfR; monkey TfR-ECD (Histag); not shown: histidine tag at the N-terminus
T1 chain: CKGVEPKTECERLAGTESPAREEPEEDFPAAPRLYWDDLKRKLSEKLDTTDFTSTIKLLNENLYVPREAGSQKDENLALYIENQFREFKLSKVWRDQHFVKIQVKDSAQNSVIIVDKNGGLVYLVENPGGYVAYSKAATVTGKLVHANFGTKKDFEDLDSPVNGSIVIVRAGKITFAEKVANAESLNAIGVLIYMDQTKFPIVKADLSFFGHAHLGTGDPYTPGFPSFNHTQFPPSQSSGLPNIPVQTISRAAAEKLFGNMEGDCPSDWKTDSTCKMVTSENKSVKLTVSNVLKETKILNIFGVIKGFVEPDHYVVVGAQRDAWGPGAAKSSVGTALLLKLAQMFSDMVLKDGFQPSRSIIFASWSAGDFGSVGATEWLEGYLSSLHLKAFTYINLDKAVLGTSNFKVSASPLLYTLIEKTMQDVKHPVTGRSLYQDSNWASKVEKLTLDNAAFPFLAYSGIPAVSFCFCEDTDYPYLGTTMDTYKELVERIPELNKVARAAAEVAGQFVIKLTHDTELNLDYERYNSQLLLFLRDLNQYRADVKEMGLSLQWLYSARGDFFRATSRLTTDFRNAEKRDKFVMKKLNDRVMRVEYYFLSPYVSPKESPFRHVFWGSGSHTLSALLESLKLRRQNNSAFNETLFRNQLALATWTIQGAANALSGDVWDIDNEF


How the values were obtained:
[1] = target: T1, recombinant monkey TfR (extracellular …); assay: calculated from BLI KD values; reference is the KD of the same peptide for hTfR
[2] = target: T2, recombinant mouse TfR (extracellular region of mouse transferrin receptor, N-terminal histidine tag) (mouse, UniProt Q62351 89-763); assay: as above
T2 construct: also called r mouse TfR; mouse TfR-ECD (Histag); not shown: histidine tag at the N-terminus

[3] = target: T1, recombinant monkey TfR (extracellular …); assay: BLI (OctetRED96), His-tagged TfR ECD on Ni-NTA biosensor, peptide in solution
[4] = target: T1, recombinant monkey TfR (extracellular …); assay: as above
[5] = target: T2, recombinant mouse TfR (extracellular …); assay: as above
[6] = target: T3, recombinant hTfR (extracellular region of human transferrin receptor, N-terminal histidine tag) (human, UniProt P02786 89-760); assay: as above
T3 construct: also called rhTfR; human TfR; not shown: histidine tag at the N-terminus

T2 sequence (Q62351 89-763): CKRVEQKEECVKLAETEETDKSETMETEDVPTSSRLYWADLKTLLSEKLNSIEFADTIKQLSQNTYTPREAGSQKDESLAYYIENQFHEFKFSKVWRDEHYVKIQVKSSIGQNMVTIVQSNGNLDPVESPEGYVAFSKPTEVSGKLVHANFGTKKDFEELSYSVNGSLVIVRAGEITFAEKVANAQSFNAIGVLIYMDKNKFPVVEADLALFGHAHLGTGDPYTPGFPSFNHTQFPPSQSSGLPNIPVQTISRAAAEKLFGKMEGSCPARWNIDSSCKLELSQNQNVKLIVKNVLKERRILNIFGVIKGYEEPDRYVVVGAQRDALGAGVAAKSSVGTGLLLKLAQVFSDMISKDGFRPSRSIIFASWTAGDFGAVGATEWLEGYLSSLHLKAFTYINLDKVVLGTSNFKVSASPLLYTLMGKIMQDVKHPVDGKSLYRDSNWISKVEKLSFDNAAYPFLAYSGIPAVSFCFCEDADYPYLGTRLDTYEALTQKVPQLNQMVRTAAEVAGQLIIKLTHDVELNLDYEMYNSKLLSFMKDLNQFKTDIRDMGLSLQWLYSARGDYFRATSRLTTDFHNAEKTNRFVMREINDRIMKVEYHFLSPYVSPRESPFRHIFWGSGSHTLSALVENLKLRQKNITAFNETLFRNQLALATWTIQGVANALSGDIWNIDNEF

Binder | relative value of the dissociation constant (KD with hTfR set to 1) [1] | relative value of the dissociation constant (KD with hTfR set to 1) [2] | Kd [3] | Kd [4] | Kd [5] | Kd [6]
hTfR affinity peptide 1 (VHH, also called Clone 1; VHH(1)) VHH: QVQLVESGGGLVQPGESLRLSCAASGSIFDIYVMRWYRQAPGKQREWVASIYDGGRSDYEAVVKGRFIISRDNAKNTGYLQMNSLKPEDTAVYFCNVLIYAGRNYWGQGTQVTVSS | 8.84 fold | 5.7 fold | 8.24 nM | 82.4 nM | 5.31 nM | 0.932 nM
hTfR affinity peptide 3 (VHH, It says only that the purified product was obtained in the same manner as peptide 1; also called Clone 2; VHH(3)) VHH: QVQLVESGGGLVQPGESLRISCAASGSIFDIYVMRWYRQAPGKQREWVASIYDGGRSDYVNVVKGRFTISRDNAKNTGDLQMNSLKPEDTAVYFCNVLTYPGRNYWGQGTQVTVSS | 3.95 fold | 1.31 fold |  | 17.4 nM | 5.75 nM | 4.4 nM
